# B1: 3F2 (antibody, from another filing, V domains shown)
# VH: EVQLVESGGGVVRPGGSLRLSCAASGFTVSDYSMNWVRQAPGKGLEWIGFIRNKANAYTTEYSASVKGRFTISRDDSKNTLYLQMNSLKTEDTAVYYCTTYPRYHAMDSWGQGTMVTVSS
# VL: AIQLTQSPSSLSASVGDRVTITCRASQSISNNLHWYLQKPGQSPQLLIYYGFQSISGVPSRFSGSGSGTDFTLTISSLQPEDFATYYCQQANSWPLTFGGGTKLEIK
# Target: hEphA2 (human) (UniProt P29317)
# Assay: ELISA
# hEphA2 (human), sequence (P29317 25-534 limits assumed): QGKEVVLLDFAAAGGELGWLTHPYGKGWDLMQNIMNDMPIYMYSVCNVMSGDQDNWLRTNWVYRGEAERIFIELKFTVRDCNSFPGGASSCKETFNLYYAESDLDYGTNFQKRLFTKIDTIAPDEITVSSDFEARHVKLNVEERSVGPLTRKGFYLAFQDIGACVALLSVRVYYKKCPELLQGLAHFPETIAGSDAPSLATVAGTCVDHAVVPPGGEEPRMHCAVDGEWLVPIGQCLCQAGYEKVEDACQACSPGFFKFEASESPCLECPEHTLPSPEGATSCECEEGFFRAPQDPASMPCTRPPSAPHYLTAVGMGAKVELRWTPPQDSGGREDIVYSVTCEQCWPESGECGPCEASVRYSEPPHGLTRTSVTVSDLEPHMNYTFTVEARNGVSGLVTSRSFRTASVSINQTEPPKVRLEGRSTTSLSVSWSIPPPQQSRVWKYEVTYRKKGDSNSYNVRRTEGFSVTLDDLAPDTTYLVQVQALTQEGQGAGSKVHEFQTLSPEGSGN
binder,measurement,value
B1,ELISA O.D. value,0.453

# — patent US20060121042A1
